Assay results from patent publication US20110306044A1.
“And” between values parts separate entries of the source, which are not always exact repeats. Equal entries are not always repeated.

Legend:
[1] = target: RDC-1 (NEOKINE receptor), transiently expressed in 293 cells; assay: 125I-T112 at 0.1 nm on 293 cells transiently transfected with RDC-1, no competitor
[2] = target: RDC-1 (NEOKINE receptor), transiently expressed in 293 cells; assay: competition: bound 125I-T112 on RDC-1-transfected 293 cells with unlabelled T112 at 3.0 nm

| cpm bound in cell pellets [1] | cpm bound in cell pellets [2] | Substance |
| --- | --- | --- |
| 37600 cpm and 27000 cpm | – | 125I-T112 (radioiodinated NEOKINE) (ligand) |
| – | 8340 cpm and 9230 cpm | T112 (NEOKINE), unlabelled (ligand) |
